Marks after values point to notes of the source that are not given here.
Experiments:
[1] = target: T1, DOI reductase from Burkholderia terrae strain AKC-020 (Paraburkholderia terrae, UniProt A0ABM7TVX3); test: Km value and Vmax of purified DOI reductase; format: biochemical
Protocol: (§1) The protein concentration of the enzyme solution was also measured by the Bradford method.

[2] = target: T1, DOI reductase from Burkholderia terrae strain AKC-020; test: Substrate specificity of purified DOI reductase (oxidation reaction, NAD+ to NADH at 340 nm); format: biochemical; conditions: substrate 5 mM
Protocol: A quantity of 10 μL of enzyme solution was added to 980 μL of 0.1 M buffer containing 1.0 μmol of NAD^+ and prewarmed for five minutes at 25° C. A quantity of 10 μL of each 0.1 M substrate was added and mixed immediately. The rate of increase in the absorbance (wavelength 340 nm) over two minutes was measured by spectrophotometer, and the activity by each substrate was compared. […] In the table, N.D. means that no reaction could be detected.

[3] = Conversion of DOI to quercitol by enzymes from recombinant E. coli (HPLC, diastereomer excess); conditions: for Diastereomer excess of scyllo-quercitol: DOI converted to scyllo-quercitol; for Conversion rate: DOI to quercitol; for (−)-Vibo-quercitol produced: conversion of DOI
Protocol: Specifically, DOI conversion was carried out using a coenzyme regeneration system by formate dehydrogenase (FDH hereinafter, Roche Diagnostics Inc., product no. 244678). […] The reaction solution was incubated for three hours while shaking at 30° C.

[4] = DOI reducing activity of recombinantly expressed inositol dehydrogenases/DOIR; format: biochemical; conditions: for DOI reducing activity: expressed in E. coli BL21 (DE3); for catalytic activity to convert 2-deoxy-scyllo-inosose into (−)-vibo-quercitol / reduction of DOI (in words): recombinant expression in Escherichia coli
Protocol: Specifically, the reaction solution composition other than DOI (990 μL) was taken by cuvette and prewarmed for approximately 5 minutes at 25° C. After adding DOI solution (10 μL) and mixing quickly, the rate of decrease in the absorbance (wavelength […]) over two minutes was measured using a spectrophotometer (Shimadzu, UV-2550) regulated to 25° C. with water as the control, and the decrease in absorbance per minute was calculated. Next, each strain was evaluated by calculating the U per mL of crude enzymatic solution, defining the amount that decreases [sic; converts]
Furthermore, inositol dehydrogenase (Sf-Idh) from Sinorhizobium fredii USDA191 is an enzyme that oxidizes myo-inositol, and iolX (Bs-IolX) from Bacillus subtilis 168 is reported to encode an enzyme showing activity on scyllo-inositol. In addition, iolW (Bs-IolW) is said to be an NADPH-dependent inositol dehydrogenase. These six genes were introduced into an expression vector Pet21B(+) (Merck), and expressed by E. coli BL21 (DE3).

[5] = substrate: O[C@@H]1[C@@H](O)[C@H](O)C[C@@H](O)[C@H]1O; test: purified protein, by the assay type; conditions: other: oxidation reaction
[6] = substrate: NC(=O)c1ccc[n+]([C@@H]2O[C@H](COP(=O)(O)OP(=O)(O)OC[C@H]3O[C@@H](n4cnc5c(N)ncnc54)[C@H](O)[C@@H]3O)[C@@H](O)[C@H]2O)c1; test: Km value and Vmax of purified DOI reductase; format: biochemical, Burkholderia terrae; conditions: other: 0.1M Gly-NaOH, pH 9.0
Protocol: as §1

[7] = substrate: O=C1C[C@@H](O)[C@H](O)[C@@H](O)[C@@H]1O; test: Km value and Vmax of purified DOI reductase; format: biochemical, Burkholderia terrae; conditions: other: reduction reaction
Protocol: as §1

[8] = Optimum pH of purified DOI reductase (DOI reduction, NADH decrease at 340 nm); format: biochemical; conditions: buffers of each pH, 25° C.
Protocol: A quantity of 10 μL of 0.1 M DOI was added and mixed immediately. The rate of decrease in the absorbance (wavelength 340 nm) over two minutes was measured by spectrophotometer, and the activity was compared at each pH.

[9] = activity relative to the culture broth

O[C@@H]1[C@@H](O)[C@H](O)C[C@@H](O)[C@H]1O [(−)-vibo-quercitol, (1R,2R,4S,5R)-cyclohexane-1,2,3,4,5-pentol]
Vmax to (−)-vibo-quercitol ([1]; oxidation reaction): 16.45 U/mg
Substrate specificity (oxidation reaction) ([2]; pH 8.0, 25° C.): 8.21 U/mg
Substrate specificity (oxidation reaction) ([2]; pH 9.0, 25° C.): 13.93 U/mg

O[C@H]1[C@H](O)[C@@H](O)[C@H](O)[C@@H](O)[C@H]1O [Myo-inositol]
Substrate specificity (oxidation reaction) ([2]; pH 8.0, 25° C.): 3.21 U/mg
Substrate specificity (oxidation reaction) ([2]; pH 9.0, 25° C.): 5.71 U/mg

O=C1C[C@@H](O)[C@H](O)[C@@H](O)[C@@H]1O [DOI, 2-deoxy-scyllo-inosose]
Vmax to DOI ([1]; reduction reaction): 116.28 U/mg

B1: BS-IolX: iolX enzyme from Bacillus subtilis 168, reported activity on scyllo-inositol, homology with DOIR 36% (protein, UniProt P40332 1-342, looked up)
scyllo-inositol …: MEHQVRCAVLGLGRLGYYHAKNLVTSVPGAKLVCVGDPLKGRAEQVARELGIEKWSEDPYEVLEDPGIDAVIIVTPTSTHGDMIIKAAENGKQIFVEKPLTLSLEESKAASEKVKETGVICQVGFMRRFDPAYADAKRRIDAGEIGKPIYYKGFTRDQGAPPAEFIKHSGGIFIDCSIHDYDIARYLLGAEITSVSGHGRILNNPFMEQYGDVDQALTYIEFDSGAAGDVEASRTSPYGHDIRAEVIGTEGSIFIGTLRHQHVTILSAKGSSFDIIPDFQTRFHEAYCLELQHFAECVRNGKTPIVTDIDATINLEVGIAATNSFRNGMPVQLDVKRAYTGM
Remaining DOI [3]: 0.4 mM
Diastereomer excess of scyllo-quercitol ([3]; from recombinant E. coli): ≥99%
Diastereomer excess of scyllo-quercitol ([3]; from recombinant E. coli, listed as Bs-IolX): 99%
Conversion rate ([3]; from recombinant E. coli): 96%
scyllo-quercitol produced (printed in the (−)-vibo-quercitol column, footnote *) ([3]; from recombinant E. coli, converted into scyllo-quercitol): 9.6* mM
DOI reducing activity [4, 9]: 0.13 U/Ml culture
catalytic activity to convert 2-deoxy-scyllo-inosose into (−)-vibo-quercitol / reduction of DOI (in words) [4]: low ability

B2: DOI reductase from Burkholderia terrae strain AKC-020 (Paraburkholderia terrae) (protein)
chain: MIRIAVLGAGRIGRIHAGNVAASPNAQLVVVADPVESAAKSLATRLGCEASTDPAGVLERKDIDAVVIGTPTDTHITFMLEAVRRGKAVLCEKPIDLDMEKSLAAANEVERQRGRVMLAFNRRFDPTSQAFRNAIDAGDVGEVRQVIISSRDPGMPPRDYVEHSGGIFRDMVIHDLDMARWLLGEEPVEVMAMASRLIDESLEKLTDFDTVMVQLRTASGKQCHINCCREAVYGYDQRMEVSGSKGMLLQENLRPSTIRRWSKEATDVREPLLNFFLERYEAAYKAELEAFVDALNTNSPLPTSVQDGLKALRLADAALESALSGKAVKV
Km [5]: 1.60 mM, 16.45 U/mg mM
Km [6]: 0.11 mM (0.1M Gly-NaOH, pH 9.0) mM
Km [7]: 0.41 mM, 116.28 U/mg mM

B3: DOIR: 2-deoxy-scyllo-inosose reductase from Burkholderia terrae strain AKC-020, amino acid sequence SEQ ID NO: 2 (protein)
chain: B2 chain
modifications: Burkholderia terrae AKC-020
Conversion rate ([3]; from recombinant E. coli): ≥99%
(−)-Vibo-quercitol produced ([3]; from recombinant E. coli): 9.9 mM
DOI reducing activity [4, 9]: 11.2 U/Ml culture
pH of maximum activity [8]: 7.0-9.0

B4: Bh-IolG: inositol dehydrogenase from Burkholderia sp. SJ98, homology with DOIR 79% (protein)
chain: MTRIAVLGAGRIGKIHAANVASNSDAKLVVVADPFEGAANSLAEKLGCEASTDCLSVIERDDVDAVVIGTPTDTHIQFMLHAVSKGKAVLCEKPIDLDMKKSLAAAKEVERHDGRVMLAFNRRFDPTSQAFRKAIDDGEVGDVRQVVITSRDPGMPPREYVTHSGGIFRDMVIHDLDLARWFLGEEPIEVMATGSRLVEPSLAEVPDFDTVMLQLRTESGKQCHINCCREAVYGYDQRLEVFGSRGMLLQENLRPSTIRRWSASATDAREPLLNFFLERYEAAYKTELTAFVEALRTNTTFPTSVADGLKALRLADCALESAMSCRSVKV
modifications: Burkholderia sp. SJ98
Conversion rate ([3]; from recombinant E. coli): ≥99%
(−)-Vibo-quercitol produced ([3]; from recombinant E. coli): 9.9 mM
DOI reducing activity [4, 9]: 11.7 U/Ml culture

B5: Pa-Idh: inositol dehydrogenase from Pantoea sp. At-9b, homology with DOIR 58% (protein)
chain: MKIAVLGAGRIGNVHAMNVASNPNVELVAIADPFIDNAIKLTEKYGGKAVKEPMELIESNAVDAVIIATPTDTHVDLMLSAARNGKAVLCEKPVDLNLERAEVACAELKQCDVPVMIAFNRRFDPSAAEMHSAIAKGEVGELHQIMISSRDPGFASMDYLRHSGGIFRDMTIHDFDMARWLLGEEPVQVFASASRMLEPALEPLNDFDTVMVQMITKSGKQCHINCSRQAVYGHDQRIEAYGSAGMLLNDNLRPSTLRRFNKSATDARVPLVHFFLERYADAYRMELEAFISAVKHAKPVPVTPYDGYMALKLADCAQQSAETGLPVQL
modifications: Pantoea sp. At-9b
Conversion rate ([3]; from recombinant E. coli): ≥99%
(−)-Vibo-quercitol produced ([3]; from recombinant E. coli): 9.9 mM
DOI reducing activity [4, 9]: 8.4 U/Ml culture

B6: BS-IolW: NADPH-dependent inositol dehydrogenase from Bacillus subtilis 168, homology with DOIR 27% (protein, UniProt O32223 1-358, looked up)
scyllo-inositol …: MITLLKGRRKVDTIKVGILGYGLSGSVFHGPLLDVLDEYQISKIMTSRTEEVKRDFPDAEVVHELEEITNDPAIELVIVTTPSGLHYEHTMACIQAGKHVVMEKPMTATAEEGETLKRAADEKGVLLSVYHNRRWDNDFLTIKKLISEGSLEDINTYQVSYNRYRPEVQARWREKEGTATGTLYDLGSHIIDQTLHLFGMPKAVTANVMAQRENAETVDYFHLTLDYGKLQAILYGGSIVPANGPRYQIHGKDSSFIKYGIDGQEDALRAGRKPEDDSWGADVPEFYGKLTTIRGSDKKTETIPSVNGSYLTYYRKIAESIREGAALPVTAEEGINVIRIIEAAMESSKEKRTIMLEH
Remaining DOI [3]: 9.9 mM
DOI reducing activity ([4]; using NADPH as coenzyme): 0.69) (using NADPH as coenzyme) U/Ml culture
catalytic activity to convert 2-deoxy-scyllo-inosose into (−)-vibo-quercitol / reduction of DOI (in words) [4]: low ability

B7: Ps-Idh: inositol dehydrogenase from Pseudomonas synxantha BG33R, homology with DOIR 68% (protein)
chain: MLRIAVLGAGRIAKIHAANVAAHPNATLVLVADPWREGVDALSTQLGCEAAYDCAAVLNRKDIDAVVIGTPTDTHIDLLLAAVAQGKAVLCEKPIDLDIAKARSAAQTVERQGGKVMLGFNRRFDPDMLRLRQALDAGQIGAVRQVIITSRDPGLAPREYLEHSGGILRDMTIHDFDTARHLLGEEPVQVSAFASRLVDPSLEQIDDYDSVMVLLRTASGKQCHINCCRQAVYGYDQRVEVSGASGVLLTDNHRPSTLRHWSAEHTEALEPLQHFFLERYADAYRNELMQFVDALNEGRELPTGMRDGLYALHLADCALESVKTGRSVAVCYDR
modifications: Pseudomonas synxantha BG33R
Conversion rate ([3]; from recombinant E. coli): ≥99%
(−)-Vibo-quercitol produced ([3]; from recombinant E. coli): 9.9 mM
DOI reducing activity [4, 9]: 9.8 U/Ml culture

From US10000743B2, “2-deoxy-scyllo-inosose reductase” (Asahi Kasei Chemicals Corporation, priority 2013, dated 2018)
